Changes are numbered by the printed parent chain. Blank lines part the entries; values can stand above or below the binder they belong to.
Experiments:
human CGRP receptor = human CGRP receptor (human, UniProt Q16602 23-461; O60894 27-148); assay: cell-based or functional assay
human PAC1 receptor = biological target: T1, human PAC1 receptor (human, UniProt P41586 21-468); assay: cell-based or functional assay
T1 sequence: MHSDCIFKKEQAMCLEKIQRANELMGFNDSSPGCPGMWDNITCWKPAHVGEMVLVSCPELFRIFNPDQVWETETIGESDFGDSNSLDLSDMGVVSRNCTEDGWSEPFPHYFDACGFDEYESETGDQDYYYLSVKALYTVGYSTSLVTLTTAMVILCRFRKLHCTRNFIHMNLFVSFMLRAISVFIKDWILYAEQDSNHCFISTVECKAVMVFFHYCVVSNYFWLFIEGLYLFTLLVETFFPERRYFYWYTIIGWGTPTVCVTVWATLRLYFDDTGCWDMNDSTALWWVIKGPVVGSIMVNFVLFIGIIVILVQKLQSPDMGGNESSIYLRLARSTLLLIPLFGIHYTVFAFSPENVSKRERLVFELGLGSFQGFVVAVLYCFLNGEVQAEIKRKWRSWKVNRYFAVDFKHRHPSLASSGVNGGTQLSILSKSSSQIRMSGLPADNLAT

human CGRP receptor, sequence (Q16602 23-461 limits assumed, chain 1 of 2): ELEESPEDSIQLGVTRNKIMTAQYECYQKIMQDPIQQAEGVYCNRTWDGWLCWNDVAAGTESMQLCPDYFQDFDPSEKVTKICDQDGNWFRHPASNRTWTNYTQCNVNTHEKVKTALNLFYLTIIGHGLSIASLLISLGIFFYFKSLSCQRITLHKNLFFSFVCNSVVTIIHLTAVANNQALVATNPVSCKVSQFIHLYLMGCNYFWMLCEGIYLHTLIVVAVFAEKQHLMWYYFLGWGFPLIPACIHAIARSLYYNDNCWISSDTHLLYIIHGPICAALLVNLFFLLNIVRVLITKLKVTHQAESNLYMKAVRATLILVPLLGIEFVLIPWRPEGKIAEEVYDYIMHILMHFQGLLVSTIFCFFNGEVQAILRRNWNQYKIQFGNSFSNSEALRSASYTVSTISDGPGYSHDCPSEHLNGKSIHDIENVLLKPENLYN
human CGRP receptor, sequence (O60894 27-148 limits assumed, chain 2 of 2): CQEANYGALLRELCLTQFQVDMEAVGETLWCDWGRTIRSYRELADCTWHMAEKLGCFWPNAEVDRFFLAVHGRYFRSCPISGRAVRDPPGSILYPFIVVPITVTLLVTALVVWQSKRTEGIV

B1: iPS:327721 (bispecific antibody, human IgG1, kappa, lambda, N297G)
light 1: EIVLTQSPATLSLSPGERATLSCRASQSVGRSLHWYQQKPGQAPRLLIKYASQSLSGIPARFSGSGSGTDFTLTISSLEPEDFAVYYCHQSSRLPFTFGPGTKVDIKRTVAAPSVFIFPPSDEQLKSGTASVVCLLNNFYPREAKVQWKVDNALQSGNSQESVTEQDSKDSTYSLESTLTLSKADYEKHKVYACEVTHQGLSSPVTKSFNRGEC
heavy 1: not shown
light 2: QSVLTQPPSVSAAPGQKVTISCSGSSSNIGNNYVSWYQQLPGTAPKLLIYDNNKRPSGIPDRFSGSKSGTSATLAITGLQTGDEADYYCGTWDSRLSAVVFGGGTKLTVLGQPKANPTVTLFPPSSEELQANKATLVCLISDFYPGAVTVAWKADGSPVKAGVETTKPSKQSNNKYAAKSYLSLTPEQWKSHRSYSCQVTHEGSTVEKTVAPTECS
heavy 2: QVQLVESGGGVVQPGRSLRLSCAASGFTFSSFGMHWVRQAPGKGLEWVAVISFDGSIKYSVDSVKGRFTISRDNSKNTLFLQMNSLRAEDTAVYYCARDRLNYYDSSGYYHYKYYGMAVWGQGTTVTVSSASTKGPSVFPLAPSSKSTSGGTAALGCLVKDYFPEPVTVSWNSGALTSGVHTFPAVLQSSGLYSLESVVTVPSSSLGTQTYICNVNHKPSNTKVDKKVEPKSCDKTHTCPPCPAPELLGGPSVFLFPPKPKDTLMISRTPEVTCVVVDVSHEDPEVKFNWYVDGVEVHNAKTKPCEEQYGSTYRCVSVLTVLHQDWLNGKEYKCKVSNKALPAPIEKTISKAKGQPREPQVYTLPPSRKEMTKNQVSLTCLVKGFYPSDIAVEWESNGQPENNYKTTPPVLKSDGSFFLYSKLTVDKSRWQQGNVFSCSVMHEALHNHYTQKSLSLSPGK
% inhibition of human CGRPR (human CGRP receptor): 81%
% inhibition of human PAC1 (human PAC1 receptor): 99%

B4: iPS:327726 (bispecific antibody, human IgG1, kappa, lambda, N297G)
light 1: B1 light 1 with P100E
heavy 1: not shown
light 2: B1 light 2 with G103K
heavy 2: B1 heavy 2 with G44E
% inhibition of human CGRPR (human CGRP receptor): 91%
% inhibition of human PAC1 (human PAC1 receptor): 77%

B7: iPS:327733 (bispecific antibody, human IgG1, kappa, lambda, N297G)
light 1: DIQLTQSPSFLSASVGDRVTITCRASQSIGRSLHWYQQKPGKAPKLLIKYASQSLSGVPSRFSGSGSGTEFTLTISSLQPEDFATYYCHQSSRLPFTFGPGTKVDIKRTVAAPSVFIFPPSDEQLKSGTASVVCLLNNFYPREAKVQWKVDNALQSGNSQESVTEQDSKDSTYSLESTLTLSKADYEKHKVYACEVTHQGLSSPVTKSFNRGEC
heavy 1: not shown
light 2: B1 light 2 with A75G
heavy 2: B1 heavy 2 with D105E
% inhibition of human CGRPR (human CGRP receptor): 84%
% inhibition of human PAC1 (human PAC1 receptor): 66%

B8: iPS:327734 (bispecific antibody, human IgG1, kappa, lambda, N297G)
light 1: B1 light 1
heavy 1: not shown
light 2: B1 light 2 with A75G
heavy 2: B1 heavy 2 with D105E
% inhibition of human CGRPR (human CGRP receptor): 82%
% inhibition of human PAC1 (human PAC1 receptor): 99%

B9: iPS:327724 (bispecific antibody, human IgG1, kappa, lambda, N297G)
light 1: not shown
heavy 1: not shown
light 2: B1 light 2 with G103K
heavy 2: B1 heavy 2 with G44E
% inhibition of human CGRPR (human CGRP receptor): 80%
% inhibition of human PAC1 (human PAC1 receptor): 33%

B10: iPS:327736 (bispecific antibody, human IgG1, kappa, lambda, N297G)
light 1: not shown
heavy 1: not shown
light 2: B1 light 2 with A75G, G103K
heavy 2: B1 heavy 2 with G44E, D105E
% inhibition of human CGRPR (human CGRP receptor): 88%
% inhibition of human PAC1 (human PAC1 receptor): 20%

Results, then the binder that gave them:

% inhibition of human CGRPR (human CGRP receptor): 81%
% inhibition of human PAC1 (human PAC1 receptor): 68%
B2: iPS:327735 (bispecific antibody, human IgG1, kappa, lambda, N297G)
light 1: DIQMTQSPSSLSASVGDRITITCRASQSISRYLNWYQQKPGKAPKLLIYAASSLQSGIPSRFSGSGSGTDFTLTINSLQPEDFATYFCQQSYSPPFTFGEGTKVDIKRTVAAPSVFIFPPSDEQLKSGTASVVCLLNNFYPREAKVQWKVDNALQSGNSQESVTEQDSKDSTYSLESTLTLSKADYEKHKVYACEVTHQGLSSPVTKSFNRGEC
heavy 1: not shown
light 2: B1 light 2 with A75G, G103K
heavy 2: B1 heavy 2 with G44E, D105E

% inhibition of human CGRPR (human CGRP receptor): 86%
% inhibition of human PAC1 (human PAC1 receptor): 39%
B3: iPS:327725 (bispecific antibody, human IgG1, kappa, lambda, N297G)
light 1: B7 light 1 with P100E
heavy 1: not shown
light 2: B1 light 2 with G103K
heavy 2: B1 heavy 2 with G44E

% inhibition of human CGRPR (human CGRP receptor): 82%
% inhibition of human PAC1 (human PAC1 receptor): 38%
B5: iPS:327722 (bispecific antibody, human IgG1, kappa, lambda, N297G)
light 1: B2 light 1
heavy 1: not shown
light 2: B1 light 2 with G103K
heavy 2: B1 heavy 2 with G44E

% inhibition of human CGRPR (human CGRP receptor): 93%
% inhibition of human PAC1 (human PAC1 receptor): 93%
B6: iPS:327727 (bispecific antibody, human IgG1, kappa, lambda, N297G)
light 1: not shown
heavy 1: not shown
light 2: B1 light 2
heavy 2: B1 heavy 2 with E370K

% inhibition of human CGRPR (human CGRP receptor): 69%
% inhibition of human PAC1 (human PAC1 receptor): 56%
B11: iPS:327732 (bispecific antibody, human IgG1, kappa, lambda, N297G)
light 1: not shown
heavy 1: not shown
light 2: B1 light 2 with A75G
heavy 2: B1 heavy 2 with D105E

% inhibition of human CGRPR (human CGRP receptor): 64%
% inhibition of human PAC1 (human PAC1 receptor): 62%
B12: iPS:326663 (bispecific antibody, human IgG2, kappa)
light 1: B7 light 1
heavy 1: QVQLVESGAEVVKPGASVKVSCKASGFTFSRFAMHWVRQAPGQGLEWMGVISYDGGNKYYAESVKGRVTMTRDTSTSTLYMELSSLRSEDTAVYYCARGYDVLTGYPDYWGQGTLVTVSSASTKGPSVFPLAPCSRSTSESTAALGCLVKDYFPEPVTVSWNSGALTSGVHTFPAVLQSSGLYSLKSVVTVPSSNFGTQTYTCNVDHKPSNTKVDKTVERKCCVECPPCPAPPVAGPSVFLFPPKPKDTLMISRTPEVTCVVVDVSHEDPEVQFNWYVDGVEVHNAKTKPREEQFNSTFRVVSVLTVVHQDWLNGKEYKCKVSNKGLPAPIEKTISKTKGQPREPQVYTLPPSREEMTKNQVSLTCLVDGFYPSDIAVEWESNGQPENNYDTTPPMLDSDGSFFLYSDLTVDKSRWQQGNVFSCSVMHEALHNHYTQKSLSLSPGK
light 2: EIVLTQSPGTLSLSPGERATLSCRASQSVSSGYLTWYQQKPGQAPRLLIYGASSRATGIPDRFSGSGSGTDFTLTISRLEPEDFAVYYCQQYGNSLSRFGQGTKLEIKRTVAAPSVFIFPPSDEQLKSGTASVVCLLNNFYPREAKVQWKVDNALQSGNSQESVTEQDSKDSTYSLKSTLTLSKADYEKHKVYACEVTHQGLSSPVTKSFNRGEC
heavy 2: QVQLVESGGGVVQPGRSLRLSCAASGFTFSSYGMHWVRQAPGKGLEWVAVIWYDGSNKYYADSVKGRFIISRDKSKNTLYLQMNSLRAEDTAVYYCARAGGIAAAGLYYYYGMDVWGQGTTVTVSSASTKGPSVFPLAPCSRSTSESTAALGCLVKDYFPEPVTVSWNSGALTSGVHTFPAVLQSSGLYSLESVVTVPSSNFGTQTYTCNVDHKPSNTKVDKTVERKCCVECPPCPAPPVAGPSVFLFPPKPKDTLMISRTPEVTCVVVDVSHEDPEVQFNWYVDGVEVHNAKTKPREEQFNSTFRVVSVLTVVHQDWLNGKEYKCKVSNKGLPAPIEKTISKTKGQPREPQVYTLPPSRKKMTKNQVSLTCLVKGFYPSDIAVEWESNGQPENNYKTTPPMLKSDGSFFLYSKLTVDKSRWQQGNVFSCSVMHEALHNHYTQKSLSLSPGK

From patent publication US20170306033A1 (Amgen, published 2017)
